From the RNAGym collection of RNA variant scans (doi:10.1021/acssynbio.7b00057) come the findings set out here.

Sequences and labels used below:
B1: Pistol ribozyme (parent)
chain: GGGUCGUUGUUCCAUAAUCGCGUGGAUAUGGCACGCAAGUUUCUACCGGGCACCGUAAAUGUCCGACUGGAGCCGUUCGGGCGGCUAUAAACAGACCUCAGGCCCGAAGCGUGGCGGCACCUGCCGCCGGUGGUAAAAAAGAUCGGAAGAGCACACGUCU

In this series the parent is B1. As to the kind of experiment: aptazyme ON/OFF ratio, guanine; higher = stronger switching; co-transcriptional cleavage with and without guanine.
Take U7A U8A G9A U10C U11C C12U C13G: the “aptazyme ON/OFF ratio” value was 1.03.

Turning to U7A U8A G9A U10A U11C C13U, the “aptazyme ON/OFF ratio” value turned out to be 1.08. Under U7A U8A G9A U10A U11C C13A stands 1.05; under U7A U8A G9A U10A U11C C13G, 1.06; under U7A U8A G9A U10A U11C C12U C13G, 1.08.

As for U7A U8A G9A U10A U11C C12U C13U, the “aptazyme ON/OFF ratio” value worked out at 1.14. Then U7A U8A G9A U10A U11C C12U C13A, with 1.17. Under U7A G9U U11C C12A C13U stands 1.24; under U7A G9U U11C C12A C13G, 1.16.

With U7A G9U U11C C12A C13A, the “aptazyme ON/OFF ratio” value came out at 1.24.

For U7A U8A G9A U10G U11G C12A C13G, the “aptazyme ON/OFF ratio” value turned out to be 1.29.

As for U7A U8A G9A U10G U11G C12A C13U, the “aptazyme ON/OFF ratio” value was determined as 1.29.

On to U7A U8A G9A U10G U11G C12A C13A, for which the “aptazyme ON/OFF ratio” value was found to be 1.2. With U7A U8A G9A U10A C12U, the “aptazyme ON/OFF ratio” value amounted to 1.23. Then U7A U8A G9A U10A C12A, with 1.28.

As to U7A U8A G9A U10A C12G, the “aptazyme ON/OFF ratio” value turned out to be 1.24. Under U7A U8A G9A U10G U11C C12G C13A stands 1.24; under U7A U8A G9A U10G U11C C12G C13G, 1.17. Then U7A U8A G9A U10G U11C C12G C13U, with 1.31. With U7A U8A G9A U11C C12U C13G, the “aptazyme ON/OFF ratio” value came out at 1.21. Under U7A U8A G9A U11C C12U C13U stands 1.08; under U7A U8A G9A U11C C12U C13A, 1.24; under U7A G9U U11G C12G C13G, 1.32. Then U7A G9U U11G C12G C13U, with 1.14; and U7A G9U U11G C12G C13A, with 1.26; and U7A U8A G9A U10C U11G C12U C13A, with 1.14.

As for U7A U8A G9A U10C U11G C12U C13U, the “aptazyme ON/OFF ratio” value came out at 1.13. For U7A U8A G9A U10C U11G C12U C13G, the “aptazyme ON/OFF ratio” value is 1.05. With U7A U8A G9A U10G C12U C13U, the “aptazyme ON/OFF ratio” value turned out to be 0.929. Under U7A U8A G9A U10G C12U C13G stands 1.17. Then U7A U8A G9A U10G C12U C13A, with 1.05. Then U7A U8A G9A U10A U11A C12G C13U, with 1.13.

Consider U7A U8A G9A U10A U11A C12G C13A, for which the “aptazyme ON/OFF ratio” value is 1.14. Then U7A U8A G9A U10A U11A C12G C13G, with 1.28; and U7A U8A G9A U10G U11G C12U, with 1.33.

For U7A U8A G9A U10G U11G C12A, the “aptazyme ON/OFF ratio” value was 1.18. Then U7A U8A G9A U10G U11G C12G, with 1.52; and U7A G9U U10G U11C C13G, with 1.08; and U7A G9U U10G U11C C13A, with 1.1.

Consider U7A G9U U10G U11C C13U, for which the “aptazyme ON/OFF ratio” value amounted to 1.05. Under U7A G9U U11C C12U C13G stands 1.1; under U7A G9U U11C C12U C13U, 1.26; under U7A G9U U11C C12U C13A, 1.2. Then U7A G9U U11A C12U C13U, with 1.22; and U7A G9U U11A C12U C13G, with 1.28. Then U7A G9U U11A C12U C13A, with 1.41; and U7A U8A G9A U10A U11A C12A C13U, with 1.34; and U7A U8A G9A U10A U11A C12A C13G, with 1.21. U7A U8A G9A U10A U11A C12A C13A: the “aptazyme ON/OFF ratio” value came out at 1.35. Under U7A U8A G9A U10C U11G C12A C13A stands 1.09. Then U7A U8A G9A U10C U11G C12A C13U, with 1.12. Then U7A U8A G9A U10C U11G C12A C13G, with 1.09; and U7A U8A C12G C13A, with 1.2.

On to U7A U8A C12G C13G, for which the “aptazyme ON/OFF ratio” value stood at 1.35. Under U7A U8A C12G C13U stands 1.48. Under U7A U8A G9A U10G U11C C12G stands 1.13. Under U7A U8A G9A U10G U11C C12U stands 1.05. Regarding U7A U8A G9A U10G U11C C12A, the “aptazyme ON/OFF ratio” value came out at 1.26. Then U7A U8A G9A U10A U11G C12U, with 1.19. Under U7A U8A G9A U10A U11G C12G stands 1.16; under U7A U8A G9A U10A U11G C12A, 1.04. Under U7A U8A G9A U10C U11A C13U stands 1.09; under U7A U8A G9A U10C U11A C13A, 1.11. Take U7A U8A G9A U10C U11A C13G: the “aptazyme ON/OFF ratio” value turned out to be 1.09.

For U7A G9U U10G U11G C13U, the “aptazyme ON/OFF ratio” value was found to be 1.11. Under U7A G9U U10G U11G C13A stands 1.22; under U7A G9U U10G U11G C13G, 1.17; under U7A U8A G9A U10G U11G C12U C13G, 1.31. Then U7A U8A G9A U10G U11G C12U C13A, with 1.25; and U7A U8A G9A U10G U11G C12U C13U, with 1.14; and U7A U8A G9A U10G C12A C13U, with 1.2.

For U7A U8A G9A U10G C12A C13G, the “aptazyme ON/OFF ratio” value came out at 1.12.

As for U7A U8A G9A U10G C12A C13A, the “aptazyme ON/OFF ratio” value was 1.21. Then U7A U8A G9A U10A U11G C12A C13U, with 1.24; and U7A U8A G9A U10A U11G C12A C13A, with 1.16; and U7A U8A G9A U10A U11G C12A C13G, with 1.24. Then U7A U8A G9A U10C C12U C13G, with 1.15. Turning to U7A U8A G9A U10C C12U C13U, the “aptazyme ON/OFF ratio” value worked out at 1.19.

As to U7A U8A G9A U10C C12U C13A, the “aptazyme ON/OFF ratio” value turned out to be 1.01. Turning to U7A U8A G9A U10C U11G C13G, the “aptazyme ON/OFF ratio” value amounted to 1.24. U7A U8A G9A U10C U11G C13U: the “aptazyme ON/OFF ratio” value was found to be 1.09. Under U7A U8A G9A U10C U11G C13A stands 1.08; under U7A U8A G9A U10G U11C C12U C13G, 1.19.
